The source of these data is patent US20170327571A1 (BEIJING BETTERMAB BIOTECHNOLOGY, published 2017).

Assay [1] addresses T1, Macaca mulatta IL17 (mmIL17) (Macaca mulatta, UniProt Q16552 24-155 (human entry), limits assumed).
T1 chain: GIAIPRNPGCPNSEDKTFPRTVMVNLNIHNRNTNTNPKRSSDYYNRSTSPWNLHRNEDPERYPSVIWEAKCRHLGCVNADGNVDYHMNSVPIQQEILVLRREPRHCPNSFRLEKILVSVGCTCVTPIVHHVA
Description: ELISA, coated IL17 1 ug/ml, HRP-anti-human IgG.

The target in assay [2] is T2, Macaca fascicularis IL17 (mfIL17) (Macaca fascicularis, UniProt Q16552 24-155 (human entry), limits assumed).
T2 chain: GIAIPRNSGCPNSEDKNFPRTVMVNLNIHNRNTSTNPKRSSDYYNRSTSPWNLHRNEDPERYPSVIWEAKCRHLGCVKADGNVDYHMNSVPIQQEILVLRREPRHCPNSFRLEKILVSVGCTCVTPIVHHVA
Kind of assay: ELISA, coated IL17 1 ug/ml, HRP-anti-human IgG.

The target of assay [3] is T3, mouse (Mus musculus) IL17 (moIL17) (mouse (Mus musculus), UniProt Q62386 26-158).
T3 construct: also called mIL17; mouse IL17
T3 sequence: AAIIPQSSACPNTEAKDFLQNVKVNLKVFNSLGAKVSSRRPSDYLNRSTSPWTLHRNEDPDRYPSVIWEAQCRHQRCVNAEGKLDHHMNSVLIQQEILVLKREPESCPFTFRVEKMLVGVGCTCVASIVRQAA
Kind of assay: ELISA, coated IL17 1 ug/ml, HRP-anti-human IgG.

The target in assay [4] is T4, huIL17-his (human IL17 with C-terminal His-tag) (human (homo sapiens), UniProt Q16552 24-155).
T4 sequence: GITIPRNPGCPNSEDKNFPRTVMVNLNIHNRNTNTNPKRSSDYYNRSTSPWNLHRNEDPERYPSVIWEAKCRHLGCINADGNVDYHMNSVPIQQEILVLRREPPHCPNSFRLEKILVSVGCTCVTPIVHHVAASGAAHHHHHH
Kind of assay: cell-based or functional assay.

B1: Ixekizumab (antibody, V domains shown)
VH: QVQLVQSGAEVKKPGSSVKVSCKASGYSFTDYHIHWVRQAPGQGLEWMGVINPMYGTTDYNQRFKGRVTITADESTSTAYMELSSLRSEDTAVYYCARYDYFTGTGVYWGQGTLVTVSS
VL: DIVMTQTPLSLSVTPGQPASISCRSSRSLVHSRGNTYLHWYLQKPGQSPQLLIYKVSNRFIGVPDRFSGSGSGTDFTLKISRVEAEDVGVYYCSQSTHLPFTFGQGTKLEIK
As for B1, the binding result in assay [1] is “binds”; in assay [2], “binds”; in assay [3] it was “no binding”.

B2: anti-IL17 monoclonal antibody 9GA3 (antibody, V domains shown)
VH: EVQLVESGGGLVQPGGSLRLSCAASGITMDDYWMNWVRQAPGKGLEWVAAINQDGNEKYYVGSVKGRFTISRDNAKNSLYLQMNSLRVEDTAVYYCVRDYYDLISDYYIHYWYFDLWGRGTLVTVSS
VL: DIQMTQSPSSLSASVGDRVTITCRASQNVHNRLTWYQQKPGKAPKLLIYGASNLESGVPSRFSGSGSGTDFTLTISSLQPEDFATYYCQQYNGSPTTFGQGTKVEIK
notes: Recombinant intact antibody
Regarding B2, the binding result is “binds” in assay [1], “binds” in assay [2] and “no binding” in assay [3]. In addition, the “IC50 of inhibiting IL17-induced release of IL6 by HDFa cells (2 nM IL17-His)” value in assay [4] is 0.12 nM.

B3: control antibody Secukinumab (antibody, V domains shown)
VH: EVQLVESGGGLVQPGGSLRLSCAASGFTFSNYWMNWVRQAPGKGLEWVAAINQDGSEKYYVGSVKGRFTISRDNAKNSLYLQMNSLRVEDTAVYYCVRDYYDILTDYYIHYWYFDLWGRGTLVTVSS
VL: not shown
As for B3, in assay [3], the binding result is given as “no binding”.

B4: anti-IL17 monoclonal antibody 9GC5 (antibody, V domains shown)
VH: EVQLVESGGGLVQPGGSLRLSCAASGMSMSDYWMNWVRQAPGKGLEWVAAINQDGDEKYYVGSVKGRFTISRDNAKNSLYLQMNSLRVEDTAVYYCVRDYYDLISDYYIHYWYFDLWGRGTLVTVSS
VL: DIQMTQSPSSLSASVGDRVTITCRASQNVHNRLTWYQQKPGKAPKLLIYGASNLESGVPSRFSGSGSGTDFTLTISSLQPEDFATYYCQQYNGSPTTFGQGTKVEIK
notes: Recombinant intact antibody
For B4, the results for the binding result in assay [1], in assay [2] and in assay [3] were “binds”, “binds” and “no binding”, respectively. Moreover, the “IC50 of inhibiting IL17-induced release of IL6 by HDFa cells (2 nM IL17-His)” value in assay [4] was 0.07 nM.

B5: anti-IL17 monoclonal antibody 9GC2 (antibody, V domains shown)
VH: EVQLVESGGGLVQPGGSLRLSCAASGFTIDNYWMNWVRQAPGKGLEWVAAINQDGNEKYYVGSVKGRFTISRDNAKNSLYLQMNSLRVEDTAVYYCVRDYYDVISDYYIHYWYFDLWGRGTLVTVSS
VL: DIQMTQSPSSLSASVGDRVTITCRASQNVHNRLTWYQQKPGKAPKLLIYGASNLESGVPSRFSGSGSGTDFTLTISSLQPEDFATYYCQQYNGSPTTFGQGTKVEIK
notes: Recombinant intact antibody
As to B5, the figures for the binding result in assay [1], in assay [2] and in assay [3] were “binds”, “binds” and “no binding”, respectively. For the same molecule, the “IC50 of inhibiting IL17-induced release of IL6 by HDFa cells (2 nM IL17-His)” value in assay [4] is 0.22 nM.
